Patent US20130023423, “TRANSPOSON NUCLEIC ACIDS COMPRISING A CALIBRATION SEQUENCE FOR DNA SEQUENCING” (Finnzymes Oy, published 2013)
Where a chain is given by its changes, count along the chain named.

Columns and labels:
Settings in all cases: chain copies: 4
MuA transposase [1] = molecular target: T1, MuA transposase (UniProt P07636 P07636:1-663); assay: EMSA; transpososome complex band about 300 bp; 30 C 1 h, Tris pH 8, EDTA, NaCl, 10% DMSO; complexes fragment gDNA with 10 mM MgCl2 (FIG. 2)
MuA transposase [2] = molecular target: T1, MuA transposase; assay: EMSA; no complex formed, no transposition activity; 30 C 1 h
MuA transposase [3] = molecular target: T1, MuA transposase; assay: EMSA; worked well in complex formation and gDNA fragmentation; the cited figure shows fragmentation
MuA transposase [4] = molecular target: T1, MuA transposase; assay: EMSA; complexes formed and active; 30 C 1 h
MuA transposase [5] = molecular target: T1, MuA transposase; assay: EMSA; worked well in complex formation and gDNA fragmentation (FIG. 4)

T1 sequence (P07636 whole entry, the tested form may be a part, one chain of several): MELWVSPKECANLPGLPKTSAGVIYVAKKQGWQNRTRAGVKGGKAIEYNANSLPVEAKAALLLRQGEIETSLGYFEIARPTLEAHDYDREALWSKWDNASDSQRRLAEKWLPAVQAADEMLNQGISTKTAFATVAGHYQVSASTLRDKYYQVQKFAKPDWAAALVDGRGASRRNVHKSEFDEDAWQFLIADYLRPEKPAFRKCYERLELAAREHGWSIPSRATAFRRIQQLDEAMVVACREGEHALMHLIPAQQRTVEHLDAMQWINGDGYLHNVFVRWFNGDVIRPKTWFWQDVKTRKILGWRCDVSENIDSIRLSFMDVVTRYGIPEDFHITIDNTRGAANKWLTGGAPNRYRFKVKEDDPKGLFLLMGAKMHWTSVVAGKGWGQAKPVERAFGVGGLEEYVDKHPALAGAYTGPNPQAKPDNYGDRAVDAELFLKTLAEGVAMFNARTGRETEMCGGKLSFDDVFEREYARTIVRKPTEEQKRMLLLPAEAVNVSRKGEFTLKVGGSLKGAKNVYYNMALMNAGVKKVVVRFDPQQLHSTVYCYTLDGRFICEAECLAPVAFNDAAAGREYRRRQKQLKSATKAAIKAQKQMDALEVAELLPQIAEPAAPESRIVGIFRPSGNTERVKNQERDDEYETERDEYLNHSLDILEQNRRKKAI

B1: native Mu transposon end (dsDNA)
DNA 1: GTTTTCGCATTTATCGTGAAACGCTTTCGCGTTTTTCGTGCGCCGCTTCA
DNA 2: TGAAGCGGCGCACGAAAAACGCGAAAGCGTTTCACGATAAATGCGAAAAC
B1: binds (MuA transposase [1]).

B2: Mu end with 3' TCAG key (dsDNA)
DNA 1: B1 DNA 1 with T48C, C49A, A50G
DNA 2: B1 DNA 2 with T1C, G2T, A3G
B2: no binding (MuA transposase [2]).

B3: Mu end modified at 10th and 11th bases (dsDNA)
DNA 1: B1 DNA 1 with G40C, C41A
DNA 2: B1 DNA 2 with G10T, C11G
B3: binds (MuA transposase [3]).

B4: Mu end with GTCA key (dsDNA)
DNA 1: B1 DNA 1 with T47G
DNA 2: B1 DNA 2 with A4C
B4: binds (MuA transposase [4]).

B5: Mu end with TGCA key (dsDNA)
DNA 1: B1 DNA 1 with T48G
DNA 2: B1 DNA 2 with A3C
B5: binds (MuA transposase [4]).

B6: Mu end with internal TCAG key (5th, 6th, 8th bases) (dsDNA)
DNA 1: B1 DNA 1 with C43T, G45A, C46G
DNA 2: B1 DNA 2 with G5C, C6T, G8A
B6: binds (MuA transposase [5]).
